From US20250270343A1 (Alector, published 2025)

Experiments:
[1] = biological target: T1, mouse GPNMB endogenously expressed on B16F10 cells (mouse, UniProt Q99P91 23-574); assay: FACS, B16F10 cells
T1 construct: whole, on cells; also called moGPNMB
T1 sequence (looked up): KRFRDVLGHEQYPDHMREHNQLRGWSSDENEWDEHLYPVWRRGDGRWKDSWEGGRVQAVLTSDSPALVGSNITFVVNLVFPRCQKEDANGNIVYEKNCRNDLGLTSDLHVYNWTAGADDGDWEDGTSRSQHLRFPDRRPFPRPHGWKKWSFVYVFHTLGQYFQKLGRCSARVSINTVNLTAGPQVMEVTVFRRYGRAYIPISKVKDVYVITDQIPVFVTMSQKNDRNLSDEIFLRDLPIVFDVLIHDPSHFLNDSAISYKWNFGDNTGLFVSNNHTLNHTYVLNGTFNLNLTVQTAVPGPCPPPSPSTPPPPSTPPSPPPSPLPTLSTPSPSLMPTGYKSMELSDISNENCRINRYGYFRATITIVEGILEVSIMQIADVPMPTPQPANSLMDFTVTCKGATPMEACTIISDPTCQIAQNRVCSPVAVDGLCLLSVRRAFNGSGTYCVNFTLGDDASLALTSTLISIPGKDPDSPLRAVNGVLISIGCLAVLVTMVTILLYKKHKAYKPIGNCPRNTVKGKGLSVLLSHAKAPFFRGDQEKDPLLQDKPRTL
Description: Recombinant anti-GPNMB antibodies of the present disclosure were examined for their ability to bind human and/or mouse GPNMB expressed on Freestyle293-huGPNMB+ or B16F10 cells, respectively. B16F10 cells are a murine melanoma cell line from a C57BL/6J mouse that endogenously express high levels of mouse GPNMB. The antibodies were also tested for their ability to bind to a human macrophage cell line (U937 cells) engineered to express human GPNMB. Cells were harvested, plated at 100,000 cells/well in a 96-well round bottom plate, and incubated in 100 μl FACS buffer (PBS containing 2% FBS, 2 mM EDTA) containing anti-GPNMB monoclonal antibodies of the present disclosure for 30 minutes on ice. Cells were then washed and incubated in 100 ul FACS buffer containing 1 μg/ml APC-conjugated anti-human IgG secondary antibody for 30 minutes in ice. Cells were washed twice in cold FACS buffer and acquired on a BD FACS Canto. Data analysis and calculation of MFI values was performed with FlowJo (TreeStar) software version 10.0.7. […]

[2] = biological target: T2, full-length untagged human GPNMB expressed on cells (human, UniProt Q14956 23-572); assay: cell-based or functional assay
T2 sequence: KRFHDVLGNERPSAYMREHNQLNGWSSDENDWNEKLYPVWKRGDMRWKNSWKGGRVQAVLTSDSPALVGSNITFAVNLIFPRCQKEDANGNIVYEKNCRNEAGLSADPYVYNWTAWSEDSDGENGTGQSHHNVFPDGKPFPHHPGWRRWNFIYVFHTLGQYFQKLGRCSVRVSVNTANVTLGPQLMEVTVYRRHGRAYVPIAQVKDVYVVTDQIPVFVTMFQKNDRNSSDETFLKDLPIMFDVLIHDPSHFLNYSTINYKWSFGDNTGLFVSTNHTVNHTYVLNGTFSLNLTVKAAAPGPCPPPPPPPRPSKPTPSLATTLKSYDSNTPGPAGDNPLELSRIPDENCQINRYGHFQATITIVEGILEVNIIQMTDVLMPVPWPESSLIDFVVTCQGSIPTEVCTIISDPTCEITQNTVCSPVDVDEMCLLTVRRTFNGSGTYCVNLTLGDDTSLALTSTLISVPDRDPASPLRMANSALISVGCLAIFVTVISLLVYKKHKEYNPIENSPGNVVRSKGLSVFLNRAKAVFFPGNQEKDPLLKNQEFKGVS

[3] = biological target: T3, soluble human GPNMB (recombinant extracellular domain) (human, UniProt Q14956 23-498); assay: SPR Carterra, Ab immobilized
T3 construct: also called huGPNMB; recombinant human GPNMB extracellular domain; not shown: C-terminal polyhistidine or Avi-His tag
T3 sequence: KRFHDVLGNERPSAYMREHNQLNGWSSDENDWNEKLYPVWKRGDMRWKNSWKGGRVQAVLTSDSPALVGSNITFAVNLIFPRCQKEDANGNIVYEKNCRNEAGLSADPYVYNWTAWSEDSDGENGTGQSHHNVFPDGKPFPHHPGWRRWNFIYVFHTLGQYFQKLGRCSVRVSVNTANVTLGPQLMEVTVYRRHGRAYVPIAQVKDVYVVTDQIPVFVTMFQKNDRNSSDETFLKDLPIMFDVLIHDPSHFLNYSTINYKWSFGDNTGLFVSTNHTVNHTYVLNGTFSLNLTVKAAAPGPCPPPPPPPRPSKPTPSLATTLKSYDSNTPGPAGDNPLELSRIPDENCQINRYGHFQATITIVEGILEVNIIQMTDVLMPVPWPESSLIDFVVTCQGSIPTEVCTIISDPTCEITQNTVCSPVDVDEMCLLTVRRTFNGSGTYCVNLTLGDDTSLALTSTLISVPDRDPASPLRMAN
Description: Binding kinetics of human anti-GPNMB IgG1 antibodies of the present disclosure to human, cynomolgus, and mouse GPNMB were evaluated using a Carterra LSA instrument (Carterra, Salt Lake City, UT). […] A HC200M sensor chip (Carterra) was activated using the single channel flow cell with a 7-minute injection of a 1:1:1 mixture of 100 mM MES pH 5.5, 100 mM sulfo-NHS, 400 mM EDC (all reconstituted in MES pH 5.5; 100 μl of each mixed in vial immediately before running assay). After switching to the multi-channel array flow cell, the antibodies were injected over the activated chip in a 96-spot array for 15 minutes. The remaining unconjugated active groups on the chip were then blocked by injecting 1M Ethanolamine pH 8.5 (Carterra) for 7 minutes using the single channel flow cell.
After priming with running buffer (HBS-EP+, Teknova) with 0.5 mg/ml BSA (Sigma), the immobilized anti-GPNMB antibodies were tested for their ability to bind to several forms of recombinant GPNMB extracellular domain, including human, cynomolgus, and mouse orthologs as described above. Estimates of affinity were generated by injecting each analyte over the entire antibody array using the single channel flow cell. GPNMB analytes were diluted to 2.5, 7.4, 22, 67, 200, and 600 nM in running buffer, and injected in serial from lowest to highest concentration without regeneration. Two buffer blanks were run between each series (one species per series). Data were processed and analyzed using Kinetics high-throughput kinetics analysis software (Carterra).

B1: anti-GPNMB antibody GPN-35 (antibody, human IgG1, V domains shown)
VH: EVQLVESGGGSVRPGRSLKLSCAAAGFTFSDYYMTWVRQAPTKGLEWVASINHDGGGTYYRDSVKGRFTISRDNARSSLYLQMDSLRSEDTGTYYCTTRAGWHWGQGVMVTVSS
VL: DIQMTQSPASLSASLGETVSIECLASEDIYNYLTWYQQKPGKSPQVLIYSASGLQDGVPSRFSGSGSGRQYSLKINGLESEDAATYFCLQDSEYPLTFGSGTKLEIK
notes: chimeric
MFI fold over background [1]: 15.4 fold | CD40 (FoB) [2]: 1.31 FoB | CD80 (FoB) [2]: 1.22 FoB | GCase (FoB) [2]: 0.9 FoB | PDL1 (FoB) [2]: 1.3 FoB | Kd [3]: 21 nM | koff [3]: 0.0015 s⁻¹ | kon [3]: 71000 M⁻¹ s⁻¹

B2: anti-GPNMB antibody GPN-38 (antibody, human IgG1, V domains shown)
VH: QVQLQQPGAELVRPGTSVRLSCKASGYTFTSYWIHWVKQRPGRGLEWIGVIDPSDSYTNYNQQFNVKATLTVDTSSSAAYMQLSSLTSEDSAVYYCARGLITAVNWYFDVWGTGTTVTVSS
VL: DIQMTQSPASLSTSVGEIVTITCRASENIYSYLTWYQQKQGKSPQLLVYNAKTLAEGVPSRFSGSGSGTQFSLKINSLQPEDFGTYYCQHHYGTPLTFGSGTKLEIK
notes: chimeric
MFI fold over background [1]: 5.1 fold | CD40 (FoB) [2]: 1.01 FoB | CD80 (FoB) [2]: 1.03 FoB | PDL1 (FoB) [2]: 1.03 FoB | Kd [3]: 4.92 nM | koff [3]: 0.00053 s⁻¹ | kon [3]: 110000 M⁻¹ s⁻¹

B3: anti-GPNMB antibody GPN-41 (antibody, human IgG1, V domains shown)
VH: QLQLQQSGTEVVKPGASVKIPCKASGYAFSSYWMNWVKQRPGKGLEWIGQIYPGDGDTNDNGKFEGKATLTVDKSSNTAYIQLSSLTSEDSAVYFCARSPLHLRGSMDYWGQGTSVTVSS
VL: SIVMTQTPKFLLVSAGDRVTITCKASQSVSNDVAWFQQKPGQSPELLIYSASNRYTGVPDRFTASGYGTDFTFTISAVQAEDLAVYFCQQNYYSPFTFGGGTRLEIK
notes: chimeric
MFI fold over background [1]: 15 fold | Kd [3]: 0.441 nM | koff [3]: 8.2e-05 s⁻¹ | kon [3]: 200000 M⁻¹ s⁻¹

B4: anti-GPNMB antibody GPN-65 (antibody, human IgG1, V domains shown)
VH: QLQLQQSGTEVVKPGASVKIPCKASGYAFSSYWMNWVKQRPGKGLEWIGQIYPGDGDTNDNGKFEGKATLTVDKSSNTAYIQLSSLTSEDSAVYFCARSPLHLRGSMDYWGQGTSVTVSS
VL: SIVMTQTPKFLLVSAGDRVTITCKASQSVSNDVAWFQQKPGQSPELLIYSASNRYTGVPDRFTGSGYGTDFTFTISTVQAEDLAVYFCQQNYYSPFTFGGGTRLEIK
notes: chimeric
MFI fold over background [1]: 6.9 fold | Kd [3]: 0.49 nM | koff [3]: 0.0001 s⁻¹ | kon [3]: 210000 M⁻¹ s⁻¹

B5: anti-GPNMB antibody GPN-48 (antibody, human IgG1, V domains shown)
VH: QVQLQQSGPELVKPGASVKLSCRASGYGFSSFWMNWVKQRPGKGLEWIGRIYPGKGDTLYNGKFKDKATLTADESSSTAYMQLSSLTSEDSAVYFCARSIYYYDYWYFDVWDTGTTVTVSS
VL: DIVMTQSHKFMSTSVGDRVNITCKASQDVNSAIAWYQQKPGQSPKLLIYSASYRFIGVPDRFTGSGSGTGFTFTISSVQAEDLAVYYCQQHYTTPLTFGAGTKLELK
notes: chimeric
CD40 (FoB) [2]: 1.06 FoB | CD80 (FoB) [2]: 1.06 FoB | GCase (FoB) [2]: 1.02 FoB | PDL1 (FoB) [2]: 1.14 FoB | Kd [3]: 1.1 nM | koff [3]: 0.00037 s⁻¹ | kon [3]: 330000 M⁻¹ s⁻¹

B6: anti-GPNMB antibody GPN-43 (antibody, human IgG1, V domains shown)
VH: EVQLQQSGPELVKPGASVKISCKASGYTFTDYYMNWVRQSHGKSLEWIGDINPYHGGSTYNQKIKVKATLTVDKSSSTAYMELRSLTSEDSAVYYCARNWPYFDYWGQGTTLTVSS
VL: DIQMTQSPASLSASVGETVTITCRASENIYSFLVWYQQKQGKSPQLLVYNAKTLAEGVPSRFSGSGSGTQFSLKISSLQPEDFGSYYCQHHFGTPPYTFGGGTKLEIK
notes: chimeric
MFI fold over background [1]: 1.6 fold | CD40 (FoB) [2]: 1.06 FoB | CD80 (FoB) [2]: 1.08 FoB | GCase (FoB) [2]: 1.01 FoB | PDL1 (FoB) [2]: 1.05 FoB | Kd [3]: 111 nM | koff [3]: 0.002 s⁻¹ | kon [3]: 18000 M⁻¹ s⁻¹

B7: anti-GPNMB antibody GPN-42 (antibody, human IgG1, V domains shown)
VH: DVKLVESGEDLVKPGGSLKLSCAASGFTFSSYAMSWVRQTPEKRLEWVAYISSGGDYIYYADTVKGRFTISRDNARNTLYLQMSSLKSEDTAMYYCTRDRYYDYDVRDYYTMDYWGQGTSVTVSS
VL: DVMMTQTPLSLPVSLGDQASISCRSSQSLVHSNGNTYLHWFLQKPGQSPKLLIFRVSNRFSGVPDRFSGRGSGTDFTLKISRVEAEDLGVYFCSQTTHVPRTFGGGTTLEIK
notes: chimeric
MFI fold over background [1]: 2.6 fold | Kd [3]: 6.1 nM | koff [3]: 8.3e-05 s⁻¹ | kon [3]: 14000 M⁻¹ s⁻¹

B8: anti-GPNMB antibody GPN-52 (antibody, human IgG1, V domains shown)
VH: DVQLQESGPGLVKPSQTVFLTCTVTGISITTGNYRWSWIRQFPGNKLEWIGYIYYSGTITYNPSLTSRITITRDTPKNEFFLEMNSLTAEDTATYYCARDLTHWYFDVWGTGTTVTVSS
VL: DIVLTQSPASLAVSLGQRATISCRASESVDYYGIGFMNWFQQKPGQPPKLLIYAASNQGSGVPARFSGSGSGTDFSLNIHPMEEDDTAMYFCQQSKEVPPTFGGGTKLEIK
notes: chimeric
MFI fold over background [1]: 3.4 fold | CD40 (FoB) [2]: 1.53 FoB | CD80 (FoB) [2]: 1.46 FoB | PDL1 (FoB) [2]: 1.44 FoB | Kd [3]: 37.9 nM | koff [3]: 0.0032 s⁻¹ | kon [3]: 86000 M⁻¹ s⁻¹

B9: anti-GPNMB antibody GPN-61 (antibody, human IgG1, V domains shown)
VH: DVQLQESGPGLVKPSQTVFLTCTVTGISITTGNYRWSWIRQFPGNKLEWIGYIYYSGTITYNPSLTSRTTITRDTPKNQFFLEMSSLTAEDTATYFCARDLRHWYFDVWGTGTTVTVSS
VL: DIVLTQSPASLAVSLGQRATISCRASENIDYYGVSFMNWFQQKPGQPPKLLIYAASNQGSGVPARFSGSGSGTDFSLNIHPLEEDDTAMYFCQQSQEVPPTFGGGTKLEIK
notes: chimeric
CD40 (FoB) [2]: 1.61 FoB | CD80 (FoB) [2]: 1.5 FoB | GCase (FoB) [2]: 1.46 FoB | PDL1 (FoB) [2]: 1.52 FoB | Kd [3]: 50.1 nM | koff [3]: 0.0035 s⁻¹ | kon [3]: 71000 M⁻¹ s⁻¹
